Reference: the supplement of paper PMC10567573

B1: PLAGL1 (parent)
chain: TKEKKHQCDHCERCFYTRKDVRRH

Variants of: B1
Test: protein stability index of a GFP-peptide fusion (GPS, HEK-293T) (PSI 1-6); higher = more stable
Conditions: c terminus: a fixed tail appended
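Further: lentivirally expressed fusions sorted by FACS into six bins by GFP to DsRed ratio, PSI derived from sequencing read proportions per bin multiplied by bin number.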

Compared with TKERKHQCDHCERCFYTRKDVRRH [K4R], TKEYKHQCDHCERCFYTRKDVRRH [K4Y] is lower in protein stability index: 3.29 for the first, 3.03 for the second.

Going from TKENKHQCDHCERCFYTRKDVRRH [K4N] to TKECKHQCDHCERCFYTRKDVRRH [K4C], the protein stability index rises from 3.08 to 3.87.

Going from TKEVKHQCDHCERCFYTRKDVRRH [K4V] to TKEEKHQCDHCERCFYTRKDVRRH [K4E], the protein stability index rises from 3.24 to 4.01.

First: TKESKHQCDHCERCFYTRKDVRRH [K4S]
Second: TKEWKHQCDHCERCFYTRKDVRRH [K4W]
The protein stability index of the first is lower: 2.93 for the first, 2.95 for the second.

Going from TKEGKHQCDHCERCFYTRKDVRRH [K4G] to TKETKHQCDHCERCFYTRKDVRRH [K4T], the protein stability index falls from 3.49 to 3.27.

Going from TKEPKHQCDHCERCFYTRKDVRRH [K4P] to TKEFKHQCDHCERCFYTRKDVRRH [K4F], the protein stability index falls from 3.33 to 3.21.

Compared with TKEMKHQCDHCERCFYTRKDVRRH [K4M], TKEDKHQCDHCERCFYTRKDVRRH [K4D] is higher in protein stability index: 3.27 for the first, 3.84 for the second.

Going from TKEHKHQCDHCERCFYTRKDVRRH [K4H] to TKEIKHQCDHCERCFYTRKDVRRH [K4I], the protein stability index rises from 3.42 to 3.57.

Going from TKELKHQCDHCERCFYTRKDVRRH [K4L] to TKEAKHQCDHCERCFYTRKDVRRH [K4A], the protein stability index rises from 2.9 to 3.32.

Going from TKIKKHQCDHCERCFYTRKDVRRH [E3I] to TKDKKHQCDHCERCFYTRKDVRRH [E3D], the protein stability index rises from 3.01 to 3.49.

Going from TKFKKHQCDHCERCFYTRKDVRRH [E3F] to TKMKKHQCDHCERCFYTRKDVRRH [E3M], the protein stability index rises from 3.29 to 3.53.

Going from TKRKKHQCDHCERCFYTRKDVRRH [E3R] to TKWKKHQCDHCERCFYTRKDVRRH [E3W], the protein stability index falls from 3.59 to 2.73.

Compared with TKAKKHQCDHCERCFYTRKDVRRH [E3A], TKHKKHQCDHCERCFYTRKDVRRH [E3H] is higher in protein stability index: 3.31 for the first, 3.55 for the second.

First: TKVKKHQCDHCERCFYTRKDVRRH [E3V]
Second: TKKKKHQCDHCERCFYTRKDVRRH [E3K]
The protein stability index of the first is lower: 3.28 for the first, 3.5 for the second.

Compared with TKCKKHQCDHCERCFYTRKDVRRH [E3C], TKYKKHQCDHCERCFYTRKDVRRH [E3Y] is lower in protein stability index: 4.51 for the first, 3.12 for the second.

Going from TKLKKHQCDHCERCFYTRKDVRRH [E3L] to TKQKKHQCDHCERCFYTRKDVRRH [E3Q], the protein stability index rises from 3.14 to 3.35.

Compared with TKPKKHQCDHCERCFYTRKDVRRH [E3P], TKNKKHQCDHCERCFYTRKDVRRH [E3N] is lower in protein stability index: 3.63 for the first, 3.59 for the second.

Compared with TKSKKHQCDHCERCFYTRKDVRRH [E3S], TKTKKHQCDHCERCFYTRKDVRRH [E3T] is lower in protein stability index: 3.48 for the first, 3.32 for the second.

First: TKGKKHQCDHCERCFYTRKDVRRH [E3G]
Second: TKEKKHWCDHCERCFYTRKDVRRH [Q7W]
The protein stability index of the first is higher: 3.45 for the first, 2.77 for the second.

Going from TKEKKHACDHCERCFYTRKDVRRH [Q7A] to TKEKKHTCDHCERCFYTRKDVRRH [Q7T], the protein stability index falls from 3.41 to 2.74.

Compared with TKEKKHNCDHCERCFYTRKDVRRH [Q7N], TKEKKHLCDHCERCFYTRKDVRRH [Q7L] is lower in protein stability index: 3.21 for the first, 2.54 for the second.

Going from TKEKKHICDHCERCFYTRKDVRRH [Q7I] to TKEKKHFCDHCERCFYTRKDVRRH [Q7F], the protein stability index falls from 3.32 to 2.91.

First: TKEKKHVCDHCERCFYTRKDVRRH [Q7V]
Second: TKEKKHYCDHCERCFYTRKDVRRH [Q7Y]
The protein stability index of the first is higher: 3.23 for the first, 2.81 for the second.

First: TKEKKHSCDHCERCFYTRKDVRRH [Q7S]
Second: TKEKKHRCDHCERCFYTRKDVRRH [Q7R]
The protein stability index of the first is lower: 3.25 for the first, 3.33 for the second.

Going from TKEKKHGCDHCERCFYTRKDVRRH [Q7G] to TKEKKHDCDHCERCFYTRKDVRRH [Q7D], the protein stability index rises from 2.89 to 3.43.

Going from TKEKKHKCDHCERCFYTRKDVRRH [Q7K] to TKEKKHMCDHCERCFYTRKDVRRH [Q7M], the protein stability index falls from 3.8 to 2.71.

Compared with TKEKKHCCDHCERCFYTRKDVRRH [Q7C], TKEKKHHCDHCERCFYTRKDVRRH [Q7H] is higher in protein stability index: 3.36 for the first, 3.73 for the second.

Going from TKEKKHPCDHCERCFYTRKDVRRH [Q7P] to TKEKKHECDHCERCFYTRKDVRRH [Q7E], the protein stability index rises from 2.82 to 3.31.

Compared with TKEKKNQCDHCERCFYTRKDVRRH [H6N], TKEKKQQCDHCERCFYTRKDVRRH [H6Q] is lower in protein stability index: 3.33 for the first, 3.08 for the second.

Compared with TKEKKCQCDHCERCFYTRKDVRRH [H6C], TKEKKIQCDHCERCFYTRKDVRRH [H6I] is lower in protein stability index: 3.7 for the first, 2.94 for the second.

First: TKEKKSQCDHCERCFYTRKDVRRH [H6S]
Second: TKEKKTQCDHCERCFYTRKDVRRH [H6T]
The protein stability index of the first is higher: 2.88 for the first, 2.86 for the second.

First: TKEKKMQCDHCERCFYTRKDVRRH [H6M]
Second: TKEKKDQCDHCERCFYTRKDVRRH [H6D]
The protein stability index of the first is lower: 2.7 for the first, 2.91 for the second.

First: TKEKKEQCDHCERCFYTRKDVRRH [H6E]
Second: TKEKKVQCDHCERCFYTRKDVRRH [H6V]
The protein stability index of the first is higher: 3.55 for the first, 2.67 for the second.

Compared with TKEKKYQCDHCERCFYTRKDVRRH [H6Y], TKEKKPQCDHCERCFYTRKDVRRH [H6P] is lower in protein stability index: 3.43 for the first, 2.94 for the second.

Compared with TKEKKKQCDHCERCFYTRKDVRRH [H6K], TKEKKLQCDHCERCFYTRKDVRRH [H6L] is lower in protein stability index: 3.19 for the first, 2.5 for the second.

First: TKEKKWQCDHCERCFYTRKDVRRH [H6W]
Second: TKEKKAQCDHCERCFYTRKDVRRH [H6A]
The protein stability index of the first is higher: 2.51 for the first, 2.39 for the second.

First: TKEKKGQCDHCERCFYTRKDVRRH [H6G]
Second: TKEKKRQCDHCERCFYTRKDVRRH [H6R]
The protein stability index of the first is lower: 2.88 for the first, 2.95 for the second.

First: TKEKKFQCDHCERCFYTRKDVRRH [H6F]
Second: NKEKKHQCDHCERCFYTRKDVRRH [T1N]
The protein stability index of the first is lower: 3.01 for the first, 3.38 for the second.

First: LKEKKHQCDHCERCFYTRKDVRRH [T1L]
Second: SKEKKHQCDHCERCFYTRKDVRRH [T1S]
The protein stability index of the first is lower: 3.34 for the first, 3.46 for the second.

Compared with QKEKKHQCDHCERCFYTRKDVRRH [T1Q], IKEKKHQCDHCERCFYTRKDVRRH [T1I] is higher in protein stability index: 3.52 for the first, 3.57 for the second.

Going from CKEKKHQCDHCERCFYTRKDVRRH [T1C] to EKEKKHQCDHCERCFYTRKDVRRH [T1E], the protein stability index rises from 3.75 to 3.82.

Compared with MKEKKHQCDHCERCFYTRKDVRRH [T1M], GKEKKHQCDHCERCFYTRKDVRRH [T1G] is higher in protein stability index: 3.39 for the first, 3.68 for the second.

First: AKEKKHQCDHCERCFYTRKDVRRH [T1A]
Second: HKEKKHQCDHCERCFYTRKDVRRH [T1H]
The protein stability index of the first is lower: 3.1 for the first, 3.12 for the second.

First: KKEKKHQCDHCERCFYTRKDVRRH [T1K]
Second: VKEKKHQCDHCERCFYTRKDVRRH [T1V]
The protein stability index of the first is higher: 3.59 for the first, 3.5 for the second.

Going from PKEKKHQCDHCERCFYTRKDVRRH [T1P] to YKEKKHQCDHCERCFYTRKDVRRH [T1Y], the protein stability index falls from 3.48 to 3.31.

Compared with FKEKKHQCDHCERCFYTRKDVRRH [T1F], DKEKKHQCDHCERCFYTRKDVRRH [T1D] is lower in protein stability index: 3.1 for the first, 3.04 for the second.

First: RKEKKHQCDHCERCFYTRKDVRRH [T1R]
Second: WKEKKHQCDHCERCFYTRKDVRRH [T1W]
The protein stability index of the first is lower: 3.37 for the first, 3.54 for the second.
